Reference: patent US6020374A, “Biologically active synthetic dye compounds” (priority 1998, dated 2000)

What was measured:
[1] = test system: IRS-1; assay: IRS-1 tyrosine phosphorylation and association with p85 in FaO cells; assay type: cell-based, rat; details: 5 mins., EB 200 μg/ml, insulin 600 ng/ml
Description: (§1) FIG. 9 is the tyrosine phosphorylation of the IR cascade in Fao cells: A--Immunoblot analysis: Fao cells were deprived of serum for 20 hours, then incubated with EB, ATA, at 200 μg/ml or insulin at 600 ng/ml for 5 mins. Cell extracts were subjected to immunoprecipitation with antibodies to: IR β-subunit (αIR), IRS-1 (αIRS-1) and to IRS-2 (αIRS-2). The immunoprecipitates and total cell extracts were analyzed by SDS-PAGE. Proteins were transferred to nitrocellulose papers, and phosphotyrosine containing proteins were probed with anti-phosphotyrosine antibodies (αP-Tyr), antibody to the 85-kDa subunit of PI3-kinase (αp85) and antibodies to active MAPK (α active MAPK). The immunoblots were visualized by ECL (Amersham).
(§2) MCF-7 cells were grown in 35 or 100 mm dishes in DMEM with 5% bovine fetal serum. Rat hepato FaO cells were grown in RPMI 1640 medium supplemented with 10% fetal calf serum. Subconfluent monolayers of MCF-7 cells or FaO cells, were deprived of serum for 20 hours prior to each experiment. The medium was removed, and cells were incubated at 37° C. under the conditions as indicated for each experiment. […]
(§3) Nitrocellulose blots of proteins were incubated with the antibodies, and proteins were detected by enhanced chemiluminescence using horseradish peroxidase-labeled protein A, horseradish peroxidase-labeled anti rabbit IgG or horseradish peroxidase-labeled anti-mouse IgG. […]

[2] = test system: IRS-2; assay: IRS-2 tyrosine phosphorylation and association with p85 in FaO cells; assay type: cell-based, rat; details: 5 mins., EB 200 μg/ml, insulin 600 ng/ml
Description: as §1, §2, §3

[3] = test system: MAPKs 1 and 2; assay: Activation of MAPKs in FaO cells; assay type: cell-based, rat; details: 5 mins., EB 200 μg/ml, insulin 600 ng/ml
Description: as §1
Nitrocellulose blots of proteins were incubated with the antibodies, and proteins were detected by enhanced chemiluminescence using horseradish peroxidase-labeled protein A, horseradish peroxidase-labeled anti rabbit IgG or horseradish peroxidase-labeled anti-mouse IgG.
In the rat hepatoma cell line FaO, EB and insulin, enhanced IRS-1 and IRS-2 tyrosine phosphorylation and their association with the 85-kDa regulatory subunit of the PI-kinase (FIG. 9A). PI3-kinase activity increases following its association with IRS-1 and IRS-2 (FIG. 9C). MAPKs 1 and 2 were activated by EB and insulin (FIG. 9A).

[4] = test system: IR, IRS-1 and the 85-kDa regulatory subunit of PI3-kinase; assay: In vivo tyrosine phosphorylation of the IR cascade in rat liver; details: Sprague-Dawley male rats, portal vein injection, EB 20 mg/rat, insulin 1 u/rat
Description: A--Immunoblot analysis. Rat liver extracts were subjected to immunoprecipitation and blotting with the indicated antibodies, as described in the legend to FIG. 9A.
(§4) EB (20 mg/rat) or insulin (1 u/rat) was injected into about 120 g weighing Sprague-Dawley male rats, via the portal vein. Control rats were injected with saline (SAL) alone. The rats were killed and the livers excised and frozen in liquid nitrogen at the indicated times.

[5] = test system: PI3-kinase; assay: In vivo PI3-kinase activity in rat liver; details: Sprague-Dawley male rats, portal vein, 5 mins. after injection, EB 20 mg/rat, insulin 1 u/rat
Description: B--Induction of PI3-kinase. PI3-kinase activity, 5 mins. after injection was assayed as described in FIG. 9C. The results are representative of 2 to 4 independent experiments.
as §4

[6] = test system: 3T3 L1 adipocytes; assay: 2-deoxyglucose uptake in 3T3 L1 adipocytes; assay type: cell-based; details: 20 mins., EB, ATA 200 μg/ml, insulin 600 ng/ml
Description: (§5) FIG. 11 is the metabolic effects in 3T3 L1 adipocytes: Fully differentiated 3T3 L1 adipocytes were incubated with EB, ATA or fuchsin (FUCH) each at 200 μg/ml, or with 600 ng/ml of insulin for 20 mins. (A, B, C) or 5 mins. (D). CON indicates no additive.
A--2-deoxyglucose uptake. Hexose uptake was measured for 10 mins. using 50 μM 2-deoxy-(^3 H) glucose (1 μCi/ml). Non-specific uptake was determined in the presence of cytochalasin B (50 μM).

[7] = test system: 3T3 L1 adipocytes; assay: Glycogen synthesis in 3T3 L1 adipocytes; assay type: cell-based; details: 20 mins., EB, ATA 200 μg/ml, insulin 600 ng/ml
Description: as §5
B--Glycogen synthesis. Cells were incubated with (^14 C)-glucose for 10 mins. Radioactivity was determined in the precipitated glycogen fraction.

[8] = test system: 3T3 L1 adipocytes; assay: Lipogenesis in 3T3 L1 adipocytes; assay type: cell-based; details: 20 mins., EB, ATA 200 μg/ml, insulin 600 ng/ml
Description: as §5
C--Lipogenesis. Cells were incubated with 5 mM(U-^14 C) glucose (1 μCi/ml) for 60 mins. Radioactivity was determined in the cellular lipid fraction.

insulin: The hormone insulin
IRS-1 tyrosine phosphorylation and association with the 85-kDa regulatory subunit of PI-kinase [1]: enhanced
IRS-2 tyrosine phosphorylation and association with the 85-kDa regulatory subunit of PI-kinase [2]: enhanced
Activation of MAPKs 1 and 2 [3]: activated
Tyrosine phosphorylation of IR, IRS-1 and 85-kDa subunit of PI3-kinase in liver [4]: phosphorylated tyrosines of IR, IRS-1 and the 85-kDa of the regulatory subunit of PI3-kinase
PI3-kinase activity in liver [5]: increased
Glucose uptake [6]: increase glucose uptake
Glycogen synthesis [7]: increase
Lipogenesis [8]: increase
